Literature values as cited in paper PMC10231660.
Read-outs that look alike come from different tables or passages of the source. Each block holds one substance with its values, some of them ahead of it.

Columns and labels:
[1] = molecular target: MC1R (UniProt Q01726)
[2] = molecular target: ZNRF3 (Homo sapiens) (UniProt Q9ULT6)
[3] = molecular target: BMPR1A ECD (Homo sapiens) (UniProt P36894)
[4] = molecular target: ZNRF3 (Homo sapiens) (UniProt Q9ULT6); remark: listed apart in the source
[5] = molecular target: ZNRF3 (Homo sapiens) (UniProt Q9ULT6); remark: listed apart in the source
[6] = molecular target: ZNRF3 (Homo sapiens) (UniProt Q9ULT6); remark: listed apart in the source

Chain of UniProt Q9ULT6 (Q9ULT6 56-219): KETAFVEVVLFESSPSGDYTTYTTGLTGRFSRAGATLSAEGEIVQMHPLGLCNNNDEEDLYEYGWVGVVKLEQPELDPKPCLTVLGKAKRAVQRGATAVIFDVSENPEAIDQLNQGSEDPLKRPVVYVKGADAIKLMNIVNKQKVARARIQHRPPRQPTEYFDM
Chain of UniProt P36894 (P36894 24-152): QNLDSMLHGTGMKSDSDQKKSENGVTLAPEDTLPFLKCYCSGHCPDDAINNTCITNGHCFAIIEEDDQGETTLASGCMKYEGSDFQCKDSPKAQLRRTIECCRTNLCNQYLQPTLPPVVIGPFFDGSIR
Chain of UniProt Q01726 (Q01726 whole entry): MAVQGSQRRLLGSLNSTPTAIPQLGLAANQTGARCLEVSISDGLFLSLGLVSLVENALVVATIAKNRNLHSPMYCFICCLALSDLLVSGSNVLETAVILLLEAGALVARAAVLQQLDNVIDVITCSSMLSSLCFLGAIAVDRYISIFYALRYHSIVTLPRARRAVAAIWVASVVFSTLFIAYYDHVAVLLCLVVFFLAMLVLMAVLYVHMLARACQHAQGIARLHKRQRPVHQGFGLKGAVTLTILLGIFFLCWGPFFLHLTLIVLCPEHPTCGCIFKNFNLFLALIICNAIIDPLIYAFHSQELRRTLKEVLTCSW

Substance: RSPO1 FU1 (from UniProt Q2MKA7)
- Kd [2]: 6800 nM

Substance: RSPO4 FU1 (from UniProt Q2I0M5)
- Kd [6]: 300000 nM

Continued, values first:

- Kd [1]: 1 nM
Substance: ASP CTD (from UniProt P42127)

- Kd [3]: 4.8 nM
Substance: RSPO2 (from UniProt Q6UXX9)

- Kd [4]: 25 nM
Substance: RSPO2 FU1 (from UniProt Q6UXX9)

- Kd [5]: 60 nM
Substance: RSPO3 FU1 (from UniProt Q9BXY4)
